Source: patent US11994512B2, “Single-cell genomic methods to generate ex vivo cell systems that recapitulate in vivo biology with improved fidelity” (Massachusetts Institute of Technology, priority 2018, dated 2024)

Test system: intracellular proteome of ENR+CD and ENR organoids
Assay: LC-MS/MS TMT proteomics of ENR+CD versus ENR organoids
Format: cell-based, C57BL/6 mice
Conditions: for Average logFC: ENR+CD versus ENR organoids, sample pairs in aggregate (n=4, 2 technical replicates from two biological donors); for M1-1 Log2 Median Normalized / M1-2 Log2 Median Normalized / M2-1 Log2 Median Normalized / M2-2 Log2 Median Normalized: protein abundance ratio ENR+CD versus ENR organoids, LC-MS/MS TMT proteomics; for M1-1 Log2 Median Normalized: sample pair M1-1; for M1-2 Log2 Median Normalized: sample pair M1-2; for M2-1 Log2 Median Normalized: sample pair M2-1; for M2-2 Log2 Median Normalized: sample pair M2-2; for change: up = enriched in ENR+CD, down = enriched in ENR, FDR<0.05 and log fold change cut-off

B1: Q6UQ17 (protein, UniProt Q6UQ17 1-1335, looked up)
chain: MDGVHLGENLEDKDTEFTWEVKANDRTYHKQFKKKGFLCWRQKKYKSNAIHTAKYNIFSFLPLNLYEQFHRMSNLYFLFIIILQGIPEISTLPWFTLFAPLVCLFVIRATRDLVDDIGRHRSDKIINNRPCQILRGKSFLWKKWKNLCVGDVVCLSKDSIVPADLLLLASTEPSSLCYVETADIDGETNLKFRQALTVTHHELTSPKKMASFQGTVTCEEPNSRMHHFVGSLEWNSRKYPLDIGNLLLRGCKIRNTDTCYGLVIYAGLDTKIMKNCGKIHLKRTKLDLMMNKLVALIFLSLVIASLLLTVGFTFMVKQFKAKHYYMSPTHGRSDAMESFFIFWGFLILLSVMVPMAMFIIAEFIYLGNSIFINWDLNMYYEPLDMPAKARSTSLNDQLGQVQYIFSDKTGTLTQNIMTFKKCCINGCIYDSDDEHGTLRKRNPYAWNPFADGKLQFYNKELESLVQGRQDRAVQEFWRLLAICHTVMVQEKDNQLLYQAASPDEEALVTAARNFGYVFLSRTQDTITLVELGEERVYQVLAMMDFNSVRKRMSVLVRNPEGSICLYTKGADTVILERLRSKGVMEATTEEVLAAFAEQTLRTLCLAYKDVEEDAYKEWEPEHQEAALLLQNRAQALHQVYNKMEQNLQLLGATAIEDKLQDGVPETIKCLKKGNIKIWVLTGDKPETAVNIGFACQLLSENMIILEDKDINQVLERYWEDNVHQKAFKMMTHHNMALVINGEFLDQLLLSLRKEPRALVQNAVVDEVAQEPVVSALDFLQKRRISQMWRNAGPSLGTSHSADSKIRESPEVQRERAFVDLASKCQAVICCRVTPKQKALVVALVKKYQQVVTLAIGDGANDVNMIKTADIGVGLAGQEGMQAVQNSDYVLAQFCYLQRLLLVHGRWSYMRVCKFLRYFFYKTVASMMAQIWFSLVNGFSAQPLYEGWFLALFNLLYSTLPVLYIGLFEQDVTAEKSLKMPELYMAGQKGELFNYSIFMQAITHGTITSMINFFVTVMVSSDMSKAGSSHDYQSLGVLVAISSLLSVTLEVMLVVKYWTLLFVGAVVLSLSSYVLMTSLTQSLWMYRISPKTFPFLFADYNVLFEPCSLLLIVLNVALNVLPMLALRTIHRTVLKQRPKGEEEAPSEEVAVEPAMRHLRRGIPARRSSYAFSHREGYANLITQGTILRRQTHVDDSDGGTVCESLNPPEEDIPLQNKDSVFNPRKISILAKKRRHFFGKGSQEEVHPNTSSQTMEKQPTIHRDSETQKLPTTTSATSGKLLPSASEDEAFYSVASQYTLASQPKHTDVHSSFWKSPLWRDSASSSPSQLEVPRKQS
modifications: full-length
Average logFC: 1.464
M1-1 Log2 Median Normalized: 1.126
M1-2 Log2 Median Normalized: 1.134
M2-1 Log2 Median Normalized: 1.7555
M2-2 Log2 Median Normalized: 1.841
change: up

B2: Q6ZQL4 (protein, UniProt Q6ZQL4 1-677, looked up)
chain: MAAGGGGSYDPLAPAGVPCAFSPDSQAYFALASSDGQLRVWETANNRLHQEYVPSAHLSGTCTCLAWAPARLQAKESHQRKKRKSEVTGTKDQADLLALGTAVGSILLYSTVRGELHSKLTSGGHENRVNCIQWHQDNDCLYSCSDDKYIVEWSTQTCKVKCKWKGDNSSVSSLCISPDGKMLLSAGRTIKLWVLETKEVYRHFTGHATPVSSLRFTTIRPNESQPSDGITGLYFLSGAVHDRLLNVWQVRSENKEKSAVMSFTVTDEPVYVDLTLSENKEEPVKLAVVCRDGQVHLFEHILNGHCKKPLTSNCTIQIATPGKGKKVTPKPIPILAASFCLDKMSLLLVYGNWFQPTIERVALNSKDTHICLERDISNCWAPTVETAITKVKTPVMNSEAKVLVPGIPGHHAPIKLPPAQPKEAENKRKLGSTEATIEERLGAMDLDRKGRKDDLQTNSFAVLLTQGLESNDFEILNKVLQTKNVNLIKRTVLRIPLRVVIPLLQELTKRLQGHPNSAALMIQWLKCVLTIHASYLSTLPDLVEQLGTLYQLMESRVKTFQKLSNLHGKLILLVTQVTASEKSKKMTSPGQKAKLVYEEESSEEESDDEVPEKDSDDNWDEDEDKDSEKDEGVDEDNEEEDEDMEDKEENEEDREVSSEKELNGDSDLDPENESEEE
modifications: full-length
Average logFC: −1.143
M1-1 Log2 Median Normalized: −1.562
M1-2 Log2 Median Normalized: −0.715
M2-1 Log2 Median Normalized: −0.9435
M2-2 Log2 Median Normalized: −1.351
change: down

B3: Q6PCN3 (protein, UniProt Q6PCN3 1-1308, looked up)
chain: MQCLAAALKDETNMSGGGEQADILPANYVVKDRWKVLKKIGGGGFGEIYEAMDLLTRENVALKVESAQQPKQVLKMEVAVLKKLQGKDHVCRFIGCGRNEKFNYVVMQLQGRNLADLRRSQPRGTFTLSTTLRLGKQILESIEAIHSVGFLHRDIKPSNFAMGRLPSTYRKCYMLDFGLARQYTNTTGDVRPPRNVAGFRGTVRYASVNAHKNREMGRHDDLWSLFYMLVEFAVGQLPWRKIKDKEQVGMIKEKYEHRMLLKHMPSEFHLFLDHIASLDYFTKPDYQLIMSVFENSMKERGIAENEAFDWEKAGTDALLSTSTSTPPQQNTRQTAAMFGVVNVTPVPGDLLRENTEDVLQGEHLSDQENAPPILPGRPPEGLGPGPHLVPHPGGPEAEVWEETDVNRNKLRINIGKTPCVEEEQSRGVGVPSSPVRAPPDSPTTPVRSLCYRRVNSPESERLSTAADGRVELQERRSRMDLPGSPSRQACSSQPAQMLSVDTGHADRQASGRMDVSASVEQEALSNAFRSVPLAEEEDFDSKEWVIIDKETELKDFPPGAEPSTSGTTDEEPEELRPLPEEGEERRRLGTEPTVRPRGRGMHTLTEEDPRQMLPQPAPPQLSQADGRSETSQPPTPGSPSHSPLHSGPRPRRRESDPTGPQRQVFSVAPPFEVNGLPRAVPLALPYQDFKRDLSDYRERARLLNRVRRVGFSHMLLTAPQVPLAPFQPQANGKEGEEEEEEEEEEEEEEEEEEEEEEEEEEEEEEEEEAGALGEVLGPRSGSSSEGSERSTERSQEGAPSTLLADDQKEARGRASMADGDLEPEEGSKTLVLVSPGDMKKSPVTAELAPDPDLGTLAALTPQHERPQPTGSQLDVSEPGTLSSILKSEPKPSGPGAGGGVGLVAPGAGVTAVTSPFTKVERTFVHIAEKSHLNVMSSGGQASRPEELSTGGELGLEVLSEGGIAEEGAPAPLENGMALAGLDGTEMESCALSGPPGETPSEVVTDSLPNGPALADGPAPASQQEPVTKKGTTISPSRHAMPGSRPRSRIPVLLSEEDTGSEPSGSLSAKERWSKRARPQQDLARLVMEKRQGRLLLRLASGASSSSSEEQRRASETLSGTGSEEDTPASEPTTALPRKAVRAATTRSRIPRPISVSMPVEGQQLPGRPHGAASATDLAITSRLQLQKPSGLAPAADLRPKQSASRGPGPGRAQVSKPAAPRSPGLPASTARHPSGSPRSQSLSRKESSSPSHQARPGVPPSRGVLQVRSQPEASPVAPKKGPKGKQLQTQRAATKGRAVVSEGRPGAR
modifications: full-length
Average logFC: 1.301
M1-1 Log2 Median Normalized: 0.917
M1-2 Log2 Median Normalized: 1.005
M2-1 Log2 Median Normalized: 1.5695
M2-2 Log2 Median Normalized: 1.711
change: up

B4: Q6DI86 (protein, UniProt Q6DI86 1-829, looked up)
chain: MFRLRSISLLSWRAFPLRPFSCESLITQMQKCTNEEQVFDLIETNTATLSEQQVGCAFNVLWQFQKQKTVLEKNVDHVRNHPQFLTLCSITTNHIPAMSDATLVDVLYSIKQFAVESHHPLIEALVTEAWKRLERFDTNVLSIFSTCLADQHLYFSPLMGKIADIVNRRLETIQDLRALSVLMVSISSLISPCFQERLVIRTELLFDTVNSSKVNIARRILLFLRNVKYSHYPLLERCNQVFIRNMSHLDLESISKILNLYQFLQFHSFEFVEAARGRLAEMTLPSDHPESFVRLFAALGPVARPEIKKQLKSTILLLSEELSSQQALIVLGAMEDMESRNSHLLKKIVSVLYKHLDNYKSIELLKIIQALTFLHFQSKELFMKLRELLLSRLEASVIPSEISVLVSALSMLPHPHLSETAVSRIEAVLPQCDFRELNDLVVYLMRWIQSDLVCLASTTGKQLDLLQKLDQLGRHRLQQSTNLDLLWEELKSLKGEWLHESLVEESIAALLRFMDEIDYSNIAKVASFLSRTNYLNTLLLDRIASVAIQQVEKIHPFSVLAIILPFSILNYDPPQKDEFFGACVQCCNSYLGTLDPGTLVFLGFSLAVLEYFPEDLLKKMFNIEFLARLDSQLEILPSSLSARIQFRLMELNRAVCLECPELQVPWFHDRFCQRQFNKDTGVMNGAQQQIYKMLAEVLGGHQCVKPSALSPYYHTVGFECILDKRKKPLPYESHSIAPRKSLGMHWDSRVEPRLPPEAERIAIELLDVRAFCSNIPHLKGKSAMKKRHLEILGYRVIQIPYFEWNSMAMSTKDARMDYLREHLFGEGKS
modifications: full-length
Average logFC: 1.459
M1-1 Log2 Median Normalized: 1.46
M1-2 Log2 Median Normalized: 1.066
M2-1 Log2 Median Normalized: 1.4225
M2-2 Log2 Median Normalized: 2.251
change: up

B5: Q768S4 (protein, UniProt Q768S4 1-302, looked up)
chain: MADTIFSSGNDQWVCPNDRQLALRAKLQTGWSVHTYQTEKQRRSQCLSPGELEIILQVIQRAERLDILEQQRIGRLVERLETMQRNVMGNGLSQCLLCGEVLGFLGSSSVFCKDCRKKVCTKCGIEASPGQKRPLWLCKICSEQREVWKRSGAWFYKGLPKYILPLKTPGRADDPHFRPLPVEPTETQPPSAETSRVYTWARGRVVSSDSDSDSDLSSSSLEDRPLPSGVKGTKGDKPRGDSGASMESPRLGPARPPSHLSGSQSSLGSEAGTGATEPQGGTPAQPEPRVPGKRHTWATPRY
modifications: full-length
Average logFC: 1.363
M1-1 Log2 Median Normalized: 1.2
M1-2 Log2 Median Normalized: 0.548
M2-1 Log2 Median Normalized: 1.8455
M2-2 Log2 Median Normalized: 1.859
change: up

B6: Q6J9G1 (protein, UniProt Q6J9G1 1-429, looked up)
chain: MGEKGHLSRVLLECSLSDKLCVVREKQYEVIIVPALLVGGFLILLAIILWLFIRGQRSQRQSPGPRGTASVPASRGRSQEAAGHGEKVLLPLKETSVEGFLRAATPRLAKLQVPREQLLEVLEQIHSGSCGTLYHATMTTKDHPKPKSVVLKALEDPVGLQEVQDFIGRIQFYQYLGKHKNLVQLEGCCTERLPLYMMLEDVVPGDLLSFLWTCRRDVMTMDGLLYDLTEKQIYHIGKQILLALEFLQEKHLFHGDVAARNILIQSDLTPKLCHLGLAYEVHAHGAISSARSSTIPLKWLAPERLLLRPASIRGDIWSFGILLYEMVTLGAPPYPEVPPTSILQYLQRKKIMKRPSSCSHAMYNIMKCCWRWSEDSRPLLGQLLQRLEAASRSADDKAVLQVPELVVPELYADVAGIRAESISYSFSVL
modifications: full-length
Average logFC: 1.195
M1-1 Log2 Median Normalized: 1.631
M1-2 Log2 Median Normalized: 1.194
M2-1 Log2 Median Normalized: 0.7015
M2-2 Log2 Median Normalized: 1.233
change: up
